Laboratory results as given in the supplement of paper PMC5998384.

How the values were obtained:
HeLa Kyoto [1] = test: solubility in G1/S (NP-40 vs SDS abundance) (log2 ratio); higher = more soluble; conditions: cell cycle stage: G1/S
HeLa Kyoto [2] = test: melting temperature (median over replicates), in situ; higher = more thermally stable
HeLa Kyoto [3] = test: thermal stability score vs G1/S (z-score of summed log2 fold changes over temperatures); higher = more thermally stable than in G1/S
HeLa Kyoto [4] = test: solubility change mitosis vs G1/S (difference of NP-40 vs SDS log2 ratios) (log2 ratio difference); higher = more soluble in mitosis
[5] = cell cycle stage: early G1 (4.5 h after nocodazole release)
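Throughout, for melting temperature (median over replicates), in situ: HeLa Kyoto cells synchronized by double thymidine or nocodazole block, proteins quantified by TMT10plex mass spectrometry, three independent biological replicates.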
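Throughout, for solubility change mitosis vs G1/S (difference of NP-40 vs SDS log2 ratios): synchronized HeLa Kyoto cells (double thymidine block for G1/S, nocodazole release for mitosis), protein amounts in NP-40 versus SDS lysates quantified by mass spectrometry, three biological replicates.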
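Throughout, for solubility in G1/S (NP-40 vs SDS abundance): HeLa Kyoto cells arrested at G1/S by double thymidine block, proteins quantified by TMT10plex mass spectrometry in mild NP-40 versus SDS extracts, three biological replicates.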
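Throughout, for thermal stability score vs G1/S (z-score of summed log2 fold changes over temperatures): synchronized HeLa Kyoto cells, proteins quantified by TMT10plex mass spectrometry, three biological replicates, mitosis taken 0.5 h after nocodazole release, G1/S directly after double thymidine block.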

Sequence | solubility in G1/S (log2) (HeLa Kyoto [1]) | melting temperature (HeLa Kyoto [2]; cell cycle stage: G1/S) | melting temperature (HeLa Kyoto [2]; cell cycle stage: mitosis) | thermal stability score (HeLa Kyoto [3]; [5]) | thermal stability score (HeLa Kyoto [3]; cell cycle stage: mitosis) | solubility change mitosis (log2) (HeLa Kyoto [4])
MAAAAAVEAAAPMGALWGLVHDFVVGQQEGPADQVAADVKSGNYTVLQVVEALGSSLENPEPRTRARAIQLLSQVLLHCHTLLLEKEVVHLILFYENRLKDHHLVIPSVLQGLKALSLCVALPPGLAVSVLKAIFQEVHVQSLPQVDRHTVYNIITNFMRTREEELKSLGADFTFGFIQVMDGEKDPRNLLVAFRIVHDLISRDYSLGPFVEELFEVTSCYFPIDFTPPPNDPHGIQREDLILSLRAVLASTPRFAEFLLPLLIEKVDSEVLSAKLDSLQTLNACCAVYGQKELKDFLPSLWASIRREVFQTASERVEAEGLAALHSLTACLSRSVLRADAEDLLDSFLSNILQDCRHHLCEPDMKLVWPSAKLLQAAAGASARACDSVTSNVLPLLLEQFHKHSQSSQRRTILEMLLGFLKLQQKWSYEDKDQRPLNGFKDQLCSLVFMALTDPSTQLQLVGIRTLTVLGAQPDLLSYEDLELAVGHLYRLSFLKEDSQSCRVAALEASGTLAALYPVAFSSHLVPKLAEELRVGESNLTNGDEPTQCSRHLCCLQALSAVSTHPSIVKETLPLLLQHLWQVNRGNMVAQSSDVIAVCQSLRQMAEKCQQDPESCWYFHQTAIPCLLALAVQASMPEKEPSVLRKVLLEDEVLAAMVSVIGTATTHLSPELAAQSVTHIVPLFLDGNVSFLPENSFPSRFQPFQDGSSGQRRLIALLMAFVCSLPRNVEIPQLNQLMRELLELSCCHSCPFSSTAAAKCFAGLLNKHPAGQQLDEFLQLAVDKVEAGLGSGPCRSQAFTLLLWVTKALVLRYHPLSSCLTARLMGLLSDPELGPAAADGFSLLMSDCTDVLTRAGHAEVRIMFRQRFFTDNVPALVQGFHAAPQDVKPNYLKGLSHVLNRLPKPVLLPELPTLLSLLLEALSCPDCVVQLSTLSCLQPLLLEAPQVMSLHVDTLVTKFLNLSSSPSMAVRIAALQCMHALTRLPTPVLLPYKPQVIRALAKPLDDKKRLVRKEAVSARGEWFLLGSPGS [MMS19] | -0.14 | 50.3 °C | 49.8 °C | -0.678 | 0.247 | -0.141
MAAPGAPAEYGYIRTVLGQQILGQLDSSSLALPSEAKLKLAGSSGRGGQTVKSLRIQEQVQQTLARKGRSSVGNGNLHRTSSVPEYVYNLHLVENDFVGGRSPVPKTYDMLKAGTTATYEGRWGRGTAQYSSQKSVEERSLRHPLRRLEISPDSSPERAHYTHSDYQYSQRSQAGHTLHHQESRRAALLVPPRYARSEIVGVSRAGTTSRQRHFDTYHRQYQHGSVSDTVFDSIPANPALLTYPRPGTSRSMGNLLEKENYLTAGLTVGQVRPLVPLQPVTQNRASRSSWHQSSFHSTRTLREAGPSVAVDSSGRRAHLTVGQAAAGGSGNLLTERSTFTDSQLGNADMEMTLERAVSMLEADHMLPSRISAAATFIQHECFQKSEARKRVNQLRGILKLLQLLKVQNEDVQRAVCGALRNLVFEDNDNKLEVAELNGVPRLLQVLKQTRDLETKKQITDHTVNLRSRNGWPGAVAHACNPSTLGGQGGRITRSGVRDQPDQHGLLWNLSSNDKLKNLMITEALLTLTENIIIPFSGWPEGDYPKANGLLDFDIFYNVTGCLRNMSSAGADGRKAMRRCDGLIDSLVHYVRGTIADYQPDDKATENCVCILHNLSYQLEAELPEKYSQNIYIQNRNIQTDNNKSIGCFGSRSRKVKEQYQDVPMPEEKSNPKGVEWLWHSIVIRMYLSLIAKSVRNYTQEASLGALQNLTAGSGPMPTSVAQTVVQKESGLQHTRKMLHVGDPSVKKTAISLLRNLSRNLSLQNEIAKETLPDLVSIIPDTVPSTDLLIETTASACYTLNNIIQNSYQNARDLLNTGGIQKIMAISAGDAYASNKASKAASVLLYSLWAHTELHHAYKKAQFKKTDFVNSRTAKAYHSLKD [PKP2] | -0.953 | 50.7 °C | 49.9 °C | -1.03 | -0.99 | 0.0433
MNPEKDFAPLTPNIVRALNDKLYEKRKVAALEIEKLVREFVAQNNTVQIKHVIQTLSQEFALSQHPHSRKGGLIGLAACSIALGKDSGLYLKELIEPVLTCFNDADSRLRYYACEALYNIVKVARGAVLPHFNVLFDGLSKLAADPDPNVKSGSELLDRLLKDIVTESNKFDLVSFIPLLRERIYSNNQYARQFIISWILVLESVPDINLLDYLPEILDGLFQILGDNGKEIRKMCEVVLGEFLKEIKKNPSSVKFAEMANILVIHCQTTDDLIQLTAMCWMREFIQLAGRVMLPYSSGILTAVLPCLAYDDRKKSIKEVANVCNQSLMKLVTPEDDELDELRPGQRQAEPTPDDALPKQEGTASGGPDGSCDSSFSSGISVFTAASTERAPVTLHLDGIVQVLNCHLSDTAIGMMTRIAVLKWLYHLYIKTPRKMFRHTDSLFPILLQTLSDESDEVILKDLEVLAEIASSPAGQTDDPGPLDGPDLQASHSELQVPTPGRAGLLNTSGTKGLECSPSTPTMNSYFYKFMINLLKRFSSERKLLEVRGPFIIRQLCLLLNAENIFHSMADILLREEDLKFASTMVHALNTILLTSTELFQLRNQLKDLKTLESQNLFCCLYRSWCHNPVTTVSLCFLTQNYRHAYDLIQKFGDLEVTVDFLAEVDKLVQLIECPIFTYLRLQLLDVKNNPYLIKALYGLLMLLPQSSAFQLLSHRLQCVPNPELLQTEDSLKAAPKSQKADSPSIDYAELLQHFEKVQNKHLEVRHQRSGRGDHLDRRVVL [VAC14] | 0.0329 | 53.3 °C | 53.9 °C | -1.83 | -1.68 | -0.133
MWRCGGRQGLCVLRRLSGGHAHHRAWRWNSNRACERALQYKLGDKIHGFTVNQVTSVPELFLTAVKLTHDDTGARYLHLAREDTNNLFSVQFRTTPMDSTGVPHILEHTVLCGSQKYPCRDPFFKMLNRSLSTFMNAFTASDYTLYPFSTQNPKDFQNLLSVYLDATFFPCLRELDFWQEGWRLEHENPSDPQTPLVFKGVVFNEMKGAFTDNERIFSQHLQNRLLPDHTYSVVSGGDPLCIPELTWEQLKQFHATHYHPSNARFFTYGNFPLEQHLKQIHEEALSKFQKIEPSTVVPAQTPWDKPREFQITCGPDSFATDPSKQTTISVSFLLPDITDTFEAFTLSLLSSLLTSGPNSPFYKALIESGLGTDFSPDVGYNGYTREAYFSVGLQGIAEKDIETVRSLIDRTIDEVVEKGFEDDRIEALLHKIEIQMKHQSTSFGLMLTSYIASCWNHDGDPVELLKLGNQLAKFRQCLQENPKFLQEKVKQYFKNNQHKLTLSMRPDDKYHEKQAQVEATKLKQKVEALSPGDRQQIYEKGLELRSQQSKPQDASCLPALKVSDIEPTIPVTELDVVLTAGDIPVQYCAQPTNGMVYFRAFSSLNTLPEELRPYVPLFCSVLTKLGCGLLDYREQAQQIELKTGGMSASPHVLPDDSHMDTYEQGVLFSSLCLDRNLPDMMQLWSEIFNNPCFEEEEHFKVLVKMTAQELANGIPDSGHLYASIRAGRTLTPAGDLQETFSGMDQVRLMKRIAEMTDIKPILRKLPRIKKHLLNGDNMRCSVNATPQQMPQTEKAVEDFLRSIGRSKKERRPVRPHTVEKPVPSSSGGDAHVPHGSQVIRKLVMEPTFKPWQMKTHFLMPFPVNYVGECIRTVPYTDPDHASLKILARLMTAKFLHTEIREKGGAYGGGAKLSHNGIFTLYSYRDPNTIETLQSFGKAVDWAKSGKFTQQDIDEAKLSVFSTVDAPVAPSDKGMDHFLYGLSDEMKQAHREQLFAVSHDKLLAVSDRYLGTGKSTHGLAILGPENPKIAKDPSWIIQ [PITRM1] | 0.143 | 51.4 °C | 50.9 °C | 0.343 | -0.944 | -0.084
